From patent US20250345445A1, “ANTIBODY-DRUG CONJUGATE AND USE THEREOF” (CSPC MEGALITH BIOPHARMACEUTICAL CO., LTD., priority 2021, published 2025)
Substitutions are numbered along the chain they refer to. Where two headings read alike, the source gives them in different places. Marks after values point to notes of the source that are not given here. *1 amine or outer side, *2 acyl side, *3 side chain or, on linkers, in order; H or OH if unused. Where a SMILES comes first, the peptide text is derived from it. [ ]: non-standard residue; d: D form. The star is where a group is joined. Exatecan = CC[C@@]1(O)C(=O)OCc2c1cc1n(c2=O)Cc2c-1nc1cc(F)c(C)c3c1c2[C@@H](N*)CC3; Hexanoyl(6-maleimido) = O=C1C=CC(=O)N1CCCCCC(=O)*; X1 = C[C@@H](OCN[*:1])C(=O)[*:2]; X2 = O=C(COCCOCN[*:1])[*:2]

Experiments:
[1] = more active than the common chemotherapy drug irinotecan; cited from earlier work
[2] = Assay 8: stability of linker-drug compounds; format: physicochemical; details: high temperature, high humidity, illumination or 0.5% BSA-PBS; LC-MS/MS; Deruxtecan also studied
Procedure: Different linker-drug compounds such as Deruxtecan, JSSW-001, and ZW-002 were studied under high temperature (40° C., 60° C.), high humidity (25° C./75% RH and 25° C./92.5% RH), illumination (illuminance 4500 Lux, near-UV energy […]), or 0.5% BSA-PBS conditions. Samples were collected at different times after exposure to these conditions, and the concentration changes of the linker-drug compounds in the samples were detected using the LC-MS/MS method.

[3] = Phase Ib, cited from earlier work
[4] = tested on: human lung adenocarcinoma PC9-GR (gefitinib-resistant cell) xenograft tumour; experiment: Assay 3: efficacy of patritumab-ADC on PC9-GR xenograft tumour; format: in vivo, NU/NU mice; details: 3 mg/kg i.v./qw*4 w
[5] = tested on: human colon cancer SW620 xenograft tumour; experiment: Assay 15: efficacy of patritumab-ADC on SW620 xenograft tumour; format: in vivo, NU/NU mice; details: 7 mg/kg i.v./single administration
Excerpt: The assay was terminated on day 26 after the administration. The inhibition effects of patritumab-DXD ADC (DAR=7.3) and patritumab-JSSW-001 ADC (DAR=7.36) on human colon cancer SW620 xenograft tumour in nude mice were compared.

[6] = tested on: human colorectal cancer DiFi xenograft tumour; experiment: Assay 16: efficacy of patritumab-ADC on DiFi xenograft tumour; format: in vivo, NU/NU mice; details: Table 29: 10 mg/kg i.v./qw*3w
Excerpt: The assay was terminated on day 28 after the administration.

[7] = early data published by the company; cited from earlier work
EGFR on MDA-MB-468 cells [8] = target: T1, EGFR on MDA-MB-468 cells (human, UniProt P00533 25-1210); experiment: flow cytometry on MDA-MB-468 cells, pH 7.4; ratio of EC50 to SWY2110
T1 construct: whole, on cells; also called epidermal growth factor receptor; HER1

EGFR on MDA-MB-468 cells [9] = target: T1, EGFR on MDA-MB-468 cells; experiment: flow cytometry on MDA-MB-468 cells, pH 6.0; ratio of EC50 to SWY2110
EGFR on MDA-MB-468 cells [10] = target: T1, EGFR on MDA-MB-468 cells; experiment: flow cytometry on MDA-MB-468 cells, antibody diluted in PBS pH 7.4, FITC anti-human Fc
EGFR on MDA-MB-468 cells [11] = target: T1, EGFR on MDA-MB-468 cells; experiment: flow cytometry on MDA-MB-468 cells, antibody diluted in PBS pH 6.0, FITC anti-human Fc

Molecule: CC[C@@]1(O)C(=O)OCc2c1cc1n(c2=O)Cc2c-1nc1cc(F)c(C)c3c1c2[C@@H](NC(=O)CO)CC3 [DXd]
- activity relative to irinotecan [1]: 10 times

Molecule: CC[C@@]1(O)C(=O)OCc2c1cc1n(c2=O)Cc2c-1nc1cc(F)c(C)c3c1c2[C@@H](NC(=O)[C@@H](C)OCNC(=O)CNC(=O)[C@H](Cc1ccccc1)NC(=O)CNC(=O)CNC(=O)CCCCCN1C(=O)C=CC1=O)CC3 [JSSW-001, N-((2R,10S)-10-benzyl-1-(((1S,9S)-9-ethyl-5-fluoro-9-hydroxy-4-methyl-10,13-dioxo-2,3,9,10,13,15-hexahydro-1H,12H-benzo[de]pyrano[3′,4′:6,7]indolizino[1,2-b]quinolin-1-yl)amino)-2-methyl-1,6,9,12,15-pentaoxo-3-oxa-5,8,11,14-tetraazahexadecan-16-yl)-6-(2,5-dioxo-2,5-dihydro-1H-pyrrol-1-yl)hexanamide] ({Hexanoyl(6-maleimido)}-GGFG[X1]-Exatecan)
- stability of linker-drug compound [2]: better stability

Molecule: CC[C@@]1(O)C(=O)OCc2c1cc1n(c2=O)Cc2c-1nc1cc(F)c(C)c3c1c2[C@@H](NC(=O)COCCOCNC(=O)CNC(=O)[C@H](Cc1ccccc1)NC(=O)CNC(=O)CNC(=O)CCCCCN1C(=O)C=CC1=O)CC3 [ZW-002, N—((S)-13-benzyl-1-(((1S,9S)-9-ethyl-5-fluoro-9-hydroxy-4-methyl-10,13-dioxo-2,3,9,10,13,15-hexahydro-1H,12H-benzo[de]pyrano[3′,4′:6,7]indolizino[1,2-b]quinolin-1-yl)amino)-1,9,12,15,18-pentaoxo-3,6-dioxa-8,11,14,17-tetraazanonadecan-19-yl)-6-(2,5-dioxo-2,5-dihydro-1H-pyrrol-1-yl)hexanamide] ({Hexanoyl(6-maleimido)}-GGFG[X2]-Exatecan)
- stability of linker-drug compound [2]: better stability

Molecule: MRG003
- objective response rate (ORR) ([3]; patients with nasopharyngeal carcinoma (4/9)): 44%
- objective response rate (ORR) ([3]; patients with non-small cell lung cancer (4/10)): 40%

Molecule: patritumab-DXD ADC (DAR = 7.3): patritumab antibody conjugated with commercially available Deruxtecan [reference compound]
- TGI(%) Day 28 [4]: 59.5%
- Tumour Volume ([4]; 28 days after administration): 373.4 ± 102.8** mm^3
- TGI(%) Day 21 [5]: 73.2%
- Tumour Volume ([5]; 21 days after administration): 461.3 ± 278.1*** mm^3
- Tumour Volume ([6]; 28 days after administration): 512.5 ± 470.8* mm^3
- TGI(%) Day 28 [6]: 54.0%

B1: BA3011 (conjugate, chains of the INN, looked up)
VH: EVQLVQSGAEVKKPGATVKISCKVSGYSFWGATMNWIRQPPGKGLEWIGLIKPSNGGTSYNQKFKGRVTISADKSISTAYLQWSSLKASDTAMYYCAHGHYESYEAMDYWGQGTLVTVSS
VL: DIQMTQSPSSLSASVGDRVTITCKASQDVVSAVAWYQQKPGQAPRLLIYWQDTRHTGVPSRFSGSGSGTEFTLTISSLQPDDFATYYCQEHFSPPLTFGQGTKVEIK
modifications: vedotin (MMAE) payload
- target-related toxicity [7]: no obvious target-related toxicity

B2: BA3021 (conjugate, chains of the INN, looked up)
VH: EVQLVQSGAEVKKPGESLRISCKGSGYTFTEYTMHWVRQAPGQGLEWMGGINTNNGGTGYNQKFKGRVTISADKSISTAYLQWSSLKASDTAMYYCAHGSLYSYGNSYFDYWGQGTLVTVSS
VL: AIQLTQSPSSLSASVGDRVTITCSATSSVSYMHWYLQKPGQSPQLLIYGTSNLASGVPDRFSGSGSGTDFTLKISRVEAEDVGVYYCQQRSSYPFTFGQGTKVEIK
modifications: vedotin (MMAE) payload
- target-related toxicity [7]: no obvious target-related toxicity

B3: EGFR antibody SWY2111 (antibody, human IgG1, kappa, V domains shown)
VH: QVQLQESGPGLVKPSETLSLTCTVSGFSLSDYDVHWVRQAPGKGLEWLGVIWSGGNTDYNTPFTSRLTISVDTSKNQFSLKLSSVTAADTAVYYCARALDDYDYEFAYWGQGTLVTVSS
VL: EIVLTQSPDFQSVTPKEKVTITCRASQSIGTNIHWYQQKPDQSPKLLIKYASESISGIPSRFSGSGSGTDFTLTINSLEAEDAATYYCQQNNEWPTSFGQGTKLEIKR
- fold decrease of affinity compared to SWY2110 (EGFR on MDA-MB-468 cells [8]): 3 times
- fold change of affinity compared to SWY2110 (EGFR on MDA-MB-468 cells [9]): 1.2 to 1.3 times
- EC50 (EGFR on MDA-MB-468 cells [10]): 1.45 nM
- EC50 (EGFR on MDA-MB-468 cells [11]): 0.6 nM

B4: EGFR antibody SWY2112 (antibody, human IgG1, kappa, V domains shown)
VH: B3 VH with D31E
VL: B3 VL
- fold change of affinity compared to SWY2110 (EGFR on MDA-MB-468 cells [9]): 1.2 to 1.3 times
- EC50 (EGFR on MDA-MB-468 cells [10]): 2.35 nM
- EC50 (EGFR on MDA-MB-468 cells [11]): 0.67 nM

B5: EGFR antibody SWY2113 (antibody, human IgG1, kappa, V domains shown)
VH: B3 VH with D31H
VL: B3 VL
- fold decrease of affinity compared to SWY2110 (EGFR on MDA-MB-468 cells [8]): 3 to 9.7 times
- fold decrease of affinity compared to SWY2110 (EGFR on MDA-MB-468 cells [9]): 6.6 times
- EC50 (EGFR on MDA-MB-468 cells [10]): 4.76 nM
- EC50 (EGFR on MDA-MB-468 cells [11]): 3.39 nM
